Legend:
murine IL-11 (mouse) = murine IL-11 (mouse) (UniProt P47873); test: cell-based or functional assay
human IL-11 (human) = human IL-11 (human) (UniProt P20809); test: cell-based or functional assay
Chain of UniProt P20809 (P20809 22-199 limits assumed): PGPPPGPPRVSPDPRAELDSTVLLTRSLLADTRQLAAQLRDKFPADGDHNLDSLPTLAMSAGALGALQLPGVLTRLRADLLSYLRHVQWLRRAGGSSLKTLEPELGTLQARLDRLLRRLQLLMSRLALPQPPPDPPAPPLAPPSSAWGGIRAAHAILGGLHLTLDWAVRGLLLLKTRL

Chain of UniProt P47873 (P47873 22-199 limits assumed): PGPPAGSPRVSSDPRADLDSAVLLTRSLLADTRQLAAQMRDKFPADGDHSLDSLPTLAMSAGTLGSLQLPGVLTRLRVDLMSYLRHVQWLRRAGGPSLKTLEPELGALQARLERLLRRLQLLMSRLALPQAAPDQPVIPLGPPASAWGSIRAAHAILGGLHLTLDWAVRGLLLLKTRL

- percentage of activated fibroblasts normalised to non-stimulated cultures (fold of non-stimulated cultures) (murine IL-11 (mouse)): 1.24
- percentage of activated mouse atrial fibroblasts with TGFβ1, against unstimulated cultures (fold of unstimulated cultures) (murine IL-11 (mouse)): 1.44
- percentage of activated mouse dermal fibroblasts with TGFβ1 (% activated fibroblasts) (murine IL-11 (mouse)): 39.4
- percentage of activated (αSMA-positive) human atrial fibroblasts with TGFβ1 (% activated fibroblasts) (human IL-11 (human)): 28.3
- percentage of activated fibroblasts normalised to non-stimulated cultures (fold of non-stimulated cultures) (human IL-11 (human)): 0.99
- percentage of activated human atrial fibroblasts with TGFβ1, against unstimulated cultures (fold of unstimulated cultures) (human IL-11 (human)): 0.89
Substance: neutralising anti-human IL-11 monoclonal antibody (Monoclonal Mouse IgG2A; Clone #22626; Catalog No. MAB218; R&D Systems, MN, USA)

Reference: patent EP4810608A2
